{"source": "paper PMC9308757", "key": {"MBP-DDX3Y": {"molecular_target": "MBP-DDX3Y (human, UniProt O15523 1-660)", "sequence (O15523 whole entry)": "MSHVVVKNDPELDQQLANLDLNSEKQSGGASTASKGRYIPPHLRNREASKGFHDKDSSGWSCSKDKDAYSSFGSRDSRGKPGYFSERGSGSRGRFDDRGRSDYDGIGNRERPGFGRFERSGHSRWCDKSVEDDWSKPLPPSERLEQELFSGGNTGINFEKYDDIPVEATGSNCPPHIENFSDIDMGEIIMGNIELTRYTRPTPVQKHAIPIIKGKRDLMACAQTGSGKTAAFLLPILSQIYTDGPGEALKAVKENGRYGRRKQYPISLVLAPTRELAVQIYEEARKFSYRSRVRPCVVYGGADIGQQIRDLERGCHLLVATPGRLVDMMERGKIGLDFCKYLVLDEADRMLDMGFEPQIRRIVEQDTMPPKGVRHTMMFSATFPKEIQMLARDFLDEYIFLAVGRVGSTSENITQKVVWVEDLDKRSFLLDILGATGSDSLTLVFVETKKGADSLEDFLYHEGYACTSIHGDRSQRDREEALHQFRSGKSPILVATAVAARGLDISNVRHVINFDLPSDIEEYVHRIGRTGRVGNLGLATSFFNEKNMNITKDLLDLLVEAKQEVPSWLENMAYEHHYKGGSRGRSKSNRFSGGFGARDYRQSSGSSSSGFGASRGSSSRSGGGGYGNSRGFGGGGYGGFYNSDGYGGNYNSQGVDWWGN", "test": "smFRET"}, "MBP-DDX3X": {"molecular_target": "MBP-DDX3X (human, UniProt O00571 1-662)", "sequence (O00571 whole entry)": "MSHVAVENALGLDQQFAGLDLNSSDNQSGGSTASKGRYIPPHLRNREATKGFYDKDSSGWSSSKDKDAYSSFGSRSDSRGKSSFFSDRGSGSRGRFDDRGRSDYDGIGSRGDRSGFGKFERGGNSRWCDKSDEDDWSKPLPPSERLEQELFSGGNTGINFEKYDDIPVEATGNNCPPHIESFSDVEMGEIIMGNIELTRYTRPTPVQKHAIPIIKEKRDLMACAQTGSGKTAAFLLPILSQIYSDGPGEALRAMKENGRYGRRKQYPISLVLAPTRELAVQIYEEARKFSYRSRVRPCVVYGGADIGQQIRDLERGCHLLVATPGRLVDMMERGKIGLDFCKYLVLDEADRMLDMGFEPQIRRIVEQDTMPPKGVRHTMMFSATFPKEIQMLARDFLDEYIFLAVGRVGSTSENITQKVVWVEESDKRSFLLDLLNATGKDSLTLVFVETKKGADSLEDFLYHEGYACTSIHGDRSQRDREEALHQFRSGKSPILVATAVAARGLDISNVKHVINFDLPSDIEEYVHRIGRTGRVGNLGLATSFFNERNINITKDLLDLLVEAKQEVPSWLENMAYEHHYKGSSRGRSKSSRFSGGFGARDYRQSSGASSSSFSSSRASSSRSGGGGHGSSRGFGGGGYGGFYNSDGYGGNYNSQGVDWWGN", "test": "smFRET"}}, "data": [{"binder": "smFRET dsRNA with 5' poly(U) overhang (dsRNA) RNA 1: ACCGCUGCCGUCGCUCCG RNA 2: UUUUUUUUUUUUUUUUUUUUUUUUUUUUUUUUUUUUUUUUUUUUUUUUUUCGGAGCGACGGCAGCGGU", "values": [{"measurement": "binding result", "setting": "MBP-DDX3Y", "result": "binds"}, {"measurement": "binding result", "setting": "MBP-DDX3X", "result": "binds"}]}]}
